From the supplement of paper PMC12042874
± gives the uncertainty stated by the source.

Experiment: amyloid nucleation score (Sup35N fusion, yeast selection) (log enrichment); library NNK3; higher = more nucleation; inactive = no reads after selection
Method in brief: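 Using DiMSum, nucleation scores were taken as the log enrichment of output over input reads, centred on the mode score of non-aggregating sequences. The input and output reads came from Illumina sequencing of plasmid inserts, with sequences under 100 input reads excluded. The yeast were psi-negative, expressed Sup35N fused to peptides of 20 random codons, were induced with 100 μM copper sulfate for 24 hours, and were grown 7 days at 30°C on medium lacking adenine and uracil.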

NCRSFCC
amyloid nucleation score: 0.905 ± 0.094

NCVRFFYASDLSNYTRA
amyloid nucleation score: inactive

NCYDSW
amyloid nucleation score: inactive

NDARAVGCTLRYKGLAIYSY
amyloid nucleation score: inactive

NDEMVY
amyloid nucleation score: inactive

NDGFMDVVNTSGSNLCMARN
amyloid nucleation score: inactive

NDHVRAFTDIFMCTMAIMND
amyloid nucleation score: inactive

NDKLWQWMGNISVRCFFINV
amyloid nucleation score: inactive

NECYYLGRNWPYYGKSDMLL
amyloid nucleation score: 0.379 ± 0.27

NELVLKYRSTVVLVKLW
amyloid nucleation score: inactive

NETPVSDAESGVLDFTSHEL
amyloid nucleation score: inactive

NEVDDWFSD
amyloid nucleation score: inactive

NFAGMFVGLMPWHVCDTTCR
amyloid nucleation score: inactive

NFCLMLDVWINTFRDIIYWG
amyloid nucleation score: inactive

NFLFMCSPYYLWIFDPGCYL
amyloid nucleation score: 2.8 ± 0.074

NFLGAFRIPRLLRSLVALYL
amyloid nucleation score: inactive

NFLVRTPGRNERG
amyloid nucleation score: inactive

NFMCFLVFHDLYEGQGYELR
amyloid nucleation score: 2.3 ± 0.089

NFNYNQQLSVLLLVFGWTWR
amyloid nucleation score: 1.83 ± 0.075

NFSCCLSCRQHMLAIFM
amyloid nucleation score: 0.988 ± 0.13

NFWVIPQ
amyloid nucleation score: inactive

NFYYSSAFLSVLFPFSACFP
amyloid nucleation score: 2.22 ± 0.084

NGGIERLSWVRVWFRHTFQS
amyloid nucleation score: inactive

NGKWKGWSS
amyloid nucleation score: inactive

NGMGKRGQRSEESISQRSTG
amyloid nucleation score: inactive

NGSSFCAKCVNVW
amyloid nucleation score: -0.418 ± 0.98

NGVILYETSAWVTNVYSRFK
amyloid nucleation score: 1.2 ± 0.18

NHGATLFECSYCNCSLAFR
amyloid nucleation score: 2.83 ± 0.081

NHMLCCTCDFHYCVRGWKSF
amyloid nucleation score: 0.64 ± 0.33

NIALFEILSSGIIVSNSNER
amyloid nucleation score: inactive

NIGNHYCRYNGWDMLNRGEL
amyloid nucleation score: inactive

NIGYSLWRHYTNSRG
amyloid nucleation score: inactive

NIISR
amyloid nucleation score: -0.184 ± 0.81

NIPVSYYVVNGLIAEMLFIS
amyloid nucleation score: 0.409 ± 0.27

NIVLFGKRVNFFYLTNDVVK
amyloid nucleation score: 1.97 ± 0.067

NKAIILHVM
amyloid nucleation score: inactive

NKGLNL
amyloid nucleation score: inactive

NKGMPGPHGANSRYTGVDVG
amyloid nucleation score: inactive

NKNHYFRVF
amyloid nucleation score: inactive

NKNQIDQASSWFPR
amyloid nucleation score: inactive

NLADAVEENGGYFHFTFPKF
amyloid nucleation score: inactive

NLAFP
amyloid nucleation score: inactive

NLCIWPVTDAHLSLMHYLTP
amyloid nucleation score: inactive

NLFDGTN
amyloid nucleation score: inactive

NLHAEWMDGSTGRKIAWNNG
amyloid nucleation score: inactive

NLKRTQLFLHLFRMGCFHT
amyloid nucleation score: inactive

NLLDYTVIVNSLSFVDSKSS
amyloid nucleation score: inactive

NLLNSFIFSRLRRVEGGMFG
amyloid nucleation score: inactive

NLLVLTDSVYIPLSHPYPNR
amyloid nucleation score: 0.493 ± 0.22

NLNGLMRLQIAVLFQ
amyloid nucleation score: 0.577 ± 0.21

NLQLESFYWFGPRGVRKHLE
amyloid nucleation score: inactive

NLRFVTREWCKTYQLI
amyloid nucleation score: inactive

NLRSLFKPWPVVPAYMRFME
amyloid nucleation score: inactive

NLSHDCPPGPAKARYYRNVK
amyloid nucleation score: inactive

NLSVIMLVVCMLTINNIYMS
amyloid nucleation score: 1.29 ± 0.11

NLVTVLIISRWGAGLR
amyloid nucleation score: 1.17 ± 0.17

NLVWICFFNGRNYLSMRDRA
amyloid nucleation score: 1.34 ± 0.15

NMLVCITSDGLYFYCCGANS
amyloid nucleation score: 1.5 ± 0.11

NMPYSCKRLWRDKCQMWEYR
amyloid nucleation score: inactive

NMRTCSIGSKPIVKFTYMCG
amyloid nucleation score: 1.31 ± 0.15

NMRYKHAWNLEVVVLKVHVY
amyloid nucleation score: inactive

NMTVGHILFLMMTCAMYVNN
amyloid nucleation score: inactive

NMVSFWN
amyloid nucleation score: inactive

NMYGYADYYRAFRDSN
amyloid nucleation score: inactive

NNCSRICM
amyloid nucleation score: inactive

NNEYQRKNLWFKGKVWLCMY
amyloid nucleation score: inactive

NNFKGFFRRFTVGCSRTPPT
amyloid nucleation score: inactive

NNLFWHNAVCLGALEEYLSK
amyloid nucleation score: inactive

NNLNQRYYTRHLQSGNLFCS
amyloid nucleation score: inactive

NNSGLSFFSNLGWVLHGDLV
amyloid nucleation score: inactive

NNVGPAFHDAC
amyloid nucleation score: inactive

NPIYDSQLPATSCMQAFNAF
amyloid nucleation score: inactive

NQCIAYYGISRLWQM
amyloid nucleation score: inactive

NQMEN
amyloid nucleation score: 0.843 ± 0.36

NQRSAILVGPSRNLQY
amyloid nucleation score: inactive

NQSCFMSAGNGSF
amyloid nucleation score: inactive

NQVISFWYSIQYCYEYSRNS
amyloid nucleation score: inactive

NRACKLCSFKSGQRSNTMGF
amyloid nucleation score: inactive

NRDVLQKPLIIAICQSFCSQ
amyloid nucleation score: 2.32 ± 0.083

NRFMVPETVKENIACFQTIQ
amyloid nucleation score: inactive

NRIGSKTCKFFMALGM
amyloid nucleation score: inactive

NRKSRSYTLFLV
amyloid nucleation score: inactive

NRLCFISAMCNVTYWVICNH
amyloid nucleation score: inactive

NRLNIFIYSFNVAVVSI
amyloid nucleation score: 2.31 ± 0.082

NRLYVKAELCSDAFRIVVAR
amyloid nucleation score: inactive

NRQFSDSLYRRACAMKEDCL
amyloid nucleation score: 0.643 ± 0.2

NRRGSSVVRI
amyloid nucleation score: inactive

NRRNLSLFECLSSTGVSRVN
amyloid nucleation score: inactive

NRSCRDFRYY
amyloid nucleation score: inactive

NSCYRRHMCWCFSKAEFLTL
amyloid nucleation score: inactive

NSFDFYAAGPY
amyloid nucleation score: inactive

NSFDGTYVYTYLPSELSTFP
amyloid nucleation score: inactive

NSGTKQTLGYSSFRD
amyloid nucleation score: inactive

NSIQCKRTVCILSGSTVMRE
amyloid nucleation score: inactive

NSLFCTWSSPWVYNPTYGWE
amyloid nucleation score: 1.26 ± 0.17

NSLLGHF
amyloid nucleation score: inactive

NSLMYFRGKFLFSIYNCYVH
amyloid nucleation score: inactive

NSLSIVM
amyloid nucleation score: -0.523 ± 1.1

NSNSI
amyloid nucleation score: inactive

NSQGQNYILTFYR
amyloid nucleation score: 1.82 ± 0.088

NSQKVIYKPFEAIYVTGTLT
amyloid nucleation score: inactive

NSRARSSYRIMNWWLLFDMT
amyloid nucleation score: inactive

NSRRCRNFASHRWPPEFRNS
amyloid nucleation score: inactive

NSRSFNTFKYNYGMLGFGVA
amyloid nucleation score: -0.612 ± 0.84

NSRYQILITLDLC
amyloid nucleation score: inactive

NSVVSGFLGHVLVGRRCGHR
amyloid nucleation score: inactive

NSWDYYVAWPFVRFG
amyloid nucleation score: -0.947 ± 0.98

NSYIFVQALMTFGDLTWAFH
amyloid nucleation score: 2.34 ± 0.073

NTINVSPVLIDN
amyloid nucleation score: inactive

NTIRKKNLLFQAWLC
amyloid nucleation score: inactive

NTIVLILHYFYNSMLASSVI
amyloid nucleation score: inactive

NTLKSV
amyloid nucleation score: inactive

NTRLSMAF
amyloid nucleation score: inactive

NTSYSRMVCSKG
amyloid nucleation score: inactive

NTTFS
amyloid nucleation score: inactive

NVANRGLLHMELSVNKDWAM
amyloid nucleation score: 0.699 ± 0.16

NVDDLGFLFIVDAYINCHFR
amyloid nucleation score: 1.58 ± 0.12

NVDVYVGVPAQVGFVILFWT
amyloid nucleation score: -0.241 ± 0.61

NVECSCDPEKTFIPKSVSLK
amyloid nucleation score: 0.102 ± 0.63

NVGWIWPYM
amyloid nucleation score: inactive

NVLLYNRKGQFSKCLCKSVD
amyloid nucleation score: inactive

NVMVISMMTSR
amyloid nucleation score: inactive

NVQQALIHVSAHGCRFFLTC
amyloid nucleation score: 2.71 ± 0.065

NVRFDGKVWLG
amyloid nucleation score: 0.744 ± 0.31

NVRSNFLVADVVVFVRKIVR
amyloid nucleation score: 2.42 ± 0.072

NVRVYSFQMTVECKELLDSQ
amyloid nucleation score: inactive

NVSQFISIGVVITFKMLLVW
amyloid nucleation score: -0.478 ± 0.68

NVSRRGC
amyloid nucleation score: inactive

NVTTVFNKIPLPDSFNMRRW
amyloid nucleation score: 1.28 ± 0.084

NWCILTLNGVSGRIRLPCWS
amyloid nucleation score: 0.405 ± 0.19

NWDFFKLKVNSHLTYAHDHR
amyloid nucleation score: inactive

NWDTNFVYSIGIDIY
amyloid nucleation score: inactive

NWFCRGVIELPHPYAQTNFS
amyloid nucleation score: inactive

NWIVGSWCKVLSVVEKEW
amyloid nucleation score: 0.101 ± 0.62

NWKLPGFPNLVQRITTDSPL
amyloid nucleation score: inactive

NWPGMLFNLSLVERRSWRRN
amyloid nucleation score: inactive

NWRLFWG
amyloid nucleation score: 1.6 ± 0.077

NWSVHTGIDKVKADDGEFQL
amyloid nucleation score: inactive

NWVQKRPGQRHFNIASNCV
amyloid nucleation score: inactive

NWVVFFTYMAHHE
amyloid nucleation score: 0.166 ± 0.26

NWYSLKGVISNFSAVFSHGY
amyloid nucleation score: inactive

NYFQFLKENFVARNKESRRG
amyloid nucleation score: inactive

NYKVRLNQDFENRHRYSMDT
amyloid nucleation score: inactive

NYLFRT
amyloid nucleation score: inactive

NYLGVTYCSYSS
amyloid nucleation score: inactive

NYLRLFLISIAYKSVLSVML
amyloid nucleation score: inactive

NYLVYSCDVRYSYMVSELAS
amyloid nucleation score: inactive

NYLYVELIWLHFSSMALRDD
amyloid nucleation score: inactive

NYMYGLRGSRLQFGMFRFGG
amyloid nucleation score: inactive

NYSAFRGSMIV
amyloid nucleation score: inactive

NYSFWLAIYSPCRSKCYARC
amyloid nucleation score: 1.58 ± 0.057

NYSMNARGPVKDLAVFGSRG
amyloid nucleation score: inactive

NYYFT
amyloid nucleation score: inactive

NYYLGETLA
amyloid nucleation score: inactive

PCKDLQTYWFENWCQRFGR
amyloid nucleation score: inactive

PCLFSQDRVRKTRSHKVNAE
amyloid nucleation score: inactive

PCPLGPYLGYFTETSYAHGM
amyloid nucleation score: inactive

PCVYWSLNCSVVIIFSTRLL
amyloid nucleation score: inactive

PDDSRRNPRFG
amyloid nucleation score: inactive

PDLIHFTCLSSWFSSVVALV
amyloid nucleation score: inactive
